# Substitutions are numbered along the chain they refer to.
# T1: human GIP receptor (human) (UniProt P48546)
# T1 sequence (looked up): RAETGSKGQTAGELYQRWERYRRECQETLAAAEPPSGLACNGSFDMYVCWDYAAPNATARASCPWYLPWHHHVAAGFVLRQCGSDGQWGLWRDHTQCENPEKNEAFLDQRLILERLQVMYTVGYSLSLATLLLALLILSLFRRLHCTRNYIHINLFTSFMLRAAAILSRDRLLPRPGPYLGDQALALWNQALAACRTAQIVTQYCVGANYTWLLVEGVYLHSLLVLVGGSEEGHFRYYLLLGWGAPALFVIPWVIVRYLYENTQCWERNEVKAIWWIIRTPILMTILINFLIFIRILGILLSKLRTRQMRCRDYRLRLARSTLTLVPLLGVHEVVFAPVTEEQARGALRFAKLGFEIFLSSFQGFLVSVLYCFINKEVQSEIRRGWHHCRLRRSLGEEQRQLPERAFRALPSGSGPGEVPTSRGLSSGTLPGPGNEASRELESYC
# B1: Example 174 (peptide)
# chain: YXQGTFTSDFSXXLDKKAQXAFIEWLLEGGSSSGAPPPSGT
# modifications: non-natural residues, acylated Lys, C-terminal amide; synthetic construct; SITE 2: note = 2-Aminoisobutyric Acid; SITE 12: note = L-ornithine; SITE 13: note = alpha-methyl-leucine; SITE 17: note = Lysine is chemically modified through conjugation of the epsilon-amino group of the Lysine side chain with (2-[2-(2-Amino-ethoxy)-ethoxy]-acetyl)-(gamma-Glu)
# B2: Example 177 (peptide)
# chain: B1 chain with S31T
# modifications: non-natural residues, AEEA-γGlu-C18 diacid acylation, C-terminal amide; synthetic construct; SITE 2: note = 2-Aminoisobutyric Acid; SITE 12: note = L-ornithine; SITE 13: note = alpha-methyl-leucine; SITE 17: note = Lysine is chemically modified through conjugation of the epsilon-amino group of the Lysine side chain with (2-[2-(2-Amino-ethoxy)-ethoxy]-acetyl)-(gamma-Glu)
# B3: Example 154 (peptide)
# chain: YXQGTFTSDXSXXLDKKAQXAFIEYLLAGGPSSGEPPPSGS
# modifications: Aib, 4Pal, Orn, αMeL; lipidated Lys; C-terminal amide; synthetic construct; SITE 2: note = 2-Aminoisobutyric Acid; SITE 10: note = 3-(4-Pyridyl)-L-alanine; SITE 12: note = L-ornithine; SITE 13: note = alpha-methyl-leucine; SITE 17: note = Lysine is chemically modified through conjugation of the epsilon-amino group of the Lysine side chain with (2-[2-(2-
# B4: Example 179 (peptide)
# chain: B1 chain with W25Y, G29X, S31E, T41S
# modifications: non-natural residues (Aib, Orn, αMeL); lipidated K; C-terminal amide; synthetic construct; SITE 2: note = 2-Aminoisobutyric Acid; SITE 12: note = L-ornithine; SITE 13: note = alpha-methyl-leucine; SITE 17: note = Lysine is chemically modified through conjugation of the epsilon-amino group of the Lysine side chain with (2-[2-(2-Amino-ethoxy)-ethoxy]-acetyl)2-(gamma-Glu)
# B5: Example 167 (peptide)
# chain: B1 chain with W25Y, G29X, S31P, A35E
# modifications: non-natural residues (Aib, Orn, αMeL); lipidated K; C-terminal amide; synthetic construct; SITE 2: note = 2-Aminoisobutyric Acid; SITE 12: note = L-ornithine; SITE 13: note = alpha-methyl-leucine; SITE 17: note = Lysine is chemically modified through conjugation of the epsilon-amino group of the Lysine side chain with (2-[2-(2-Amino-ethoxy)-ethoxy]-acetyl)2-(gamma-Glu)
# B6: Example 162 (peptide)
# chain: B1 chain with W25Y, S31H, S39G, T41S
# modifications: Aib, Orn, αMeL; acylated Lys; C-terminal amide; synthetic construct; SITE 2: note = 2-Aminoisobutyric Acid; SITE 12: note = L-ornithine; SITE 13: note = alpha-methyl-leucine; SITE 17: note = Lysine is chemically modified through conjugation of the epsilon-amino group of the Lysine side chain with (2-[2-(2-Amino-ethoxy)-ethoxy]-acetyl)-(gamma-Glu)
# B7: Example 176 (peptide)
# chain: B1 chain with S31T, T41S
# modifications: Aib, Orn, αMeL; AEEA-γGlu-C18 diacid Lys; C-term amide; synthetic construct; SITE 2: note = 2-Aminoisobutyric Acid; SITE 12: note = L-ornithine; SITE 13: note = alpha-methyl-leucine; SITE 17: note = Lysine is chemically modified through conjugation of the epsilon-amino group of the Lysine side chain with (2-[2-(2-Amino-ethoxy)-ethoxy]-acetyl)-(gamma-Glu)
# B8: Example 171 (peptide)
# chain: B1 chain with S31H
# modifications: Aib, Orn, αMeL; K acylated AEEA-γGlu-C18 diacid; C-terminal amide; synthetic construct; SITE 2: note = 2-Aminoisobutyric Acid; SITE 12: note = L-ornithine; SITE 13: note = alpha-methyl-leucine; SITE 17: note = Lysine is chemically modified through conjugation of the epsilon-amino group of the Lysine side chain with (2-[2-(2-Amino-ethoxy)-ethoxy]-acetyl)-(gamma-Glu)
# B9: Example 164 (peptide)
# chain: B3 chain with X10F, A28E, P31H, S39G
# modifications: non-natural residues; lipidated Lys AEEA-γGlu-C18 diacid; C-term amide; synthetic construct; SITE 2: note = 2-Aminoisobutyric Acid; SITE 12: note = L-ornithine; SITE 13: note = alpha-methyl-leucine; SITE 17: note = Lysine is chemically modified through conjugation of the epsilon-amino group of the Lysine side chain with (2-[2-(2-Amino-ethoxy)-ethoxy]-acetyl)-(gamma-Glu)
# B10: Example 157 (peptide)
# chain: B3 chain with X10F, A28E, G29A, S41Q
# modifications: Aib, Orn, alpha-methyl-Leu, D-Ala, lipidated Lys, amide; synthetic construct; SITE 2: note = 2-Aminoisobutyric Acid; SITE 12: note = L-ornithine; SITE 13: note = alpha-methyl-leucine; SITE 17: note = Lysine is chemically modified through conjugation of the epsilon-amino group of the Lysine side chain with (2-[2-(2-Amino-ethoxy)-ethoxy]-acetyl)2-(gamma-Glu)
# B11: Example 165 (peptide)
# chain: B1 chain with W25Y, G29X, S31P
# modifications: non-natural residues, acylated Lys, C-terminal amide; synthetic construct; SITE 2: note = 2-Aminoisobutyric Acid; SITE 12: note = L-ornithine; SITE 13: note = alpha-methyl-leucine; SITE 17: note = Lysine is chemically modified through conjugation of the epsilon-amino group of the Lysine side chain with (2-[2-(2-Amino-ethoxy)-ethoxy]-acetyl)2-(gamma-Glu)
# Target: hGLP-1R (Homo sapiens, UniProt P43220)
# Sequence (P43220 24-463): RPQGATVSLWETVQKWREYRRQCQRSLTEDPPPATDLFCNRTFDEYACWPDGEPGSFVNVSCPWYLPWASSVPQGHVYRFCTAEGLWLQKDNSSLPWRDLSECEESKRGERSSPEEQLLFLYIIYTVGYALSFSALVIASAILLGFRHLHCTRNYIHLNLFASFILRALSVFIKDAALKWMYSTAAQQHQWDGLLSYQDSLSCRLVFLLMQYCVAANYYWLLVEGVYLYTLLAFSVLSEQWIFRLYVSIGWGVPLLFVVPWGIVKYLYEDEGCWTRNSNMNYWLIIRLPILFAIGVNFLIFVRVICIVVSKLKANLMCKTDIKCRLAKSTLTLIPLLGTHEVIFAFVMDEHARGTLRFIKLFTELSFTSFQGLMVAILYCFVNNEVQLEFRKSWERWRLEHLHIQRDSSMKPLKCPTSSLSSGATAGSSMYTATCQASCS
# Assay: cell-based or functional assay
Binder,"Relative cAMP EC50, nM (0.1% casein) [nM]","cAMP Rel EC50, nM (1% HSA) [nM]"
B1,2.33,208
B2,2.97,483
B3,4.94,569
B4,5.81,904
B5,6.19,1300
B6,4.72,786
B7,2.92,389
B8,2.89,287
B9,5.02,962
B10,3.04,496
B11,6.52,808

# Target: T1, human GIP receptor (human)
# Assay: cell-based or functional assay
Binder,"Relative cAMP EC50, nM (0.1% casein) [nM]","cAMP Rel EC50, nM (1% HSA) [nM]"
B1,0.198,20.8
B2,0.213,34.8
B3,0.227,29.7
B4,0.104,21.3
B5,0.101,24.7
B6,0.222,37.5
B7,0.212,40.7
B8,0.2,27.1
B9,0.302,59
B10,0.183,22.2
B11,0.0956,18.6

# Target: human GLP-1R (SNAP-GLP-1R expressed in HEK293 cells) (human) (UniProt P43220)
# Sequence (P43220 24-463): as above
# Assay: cell-based or functional assay
Binder,GLP1R Internalization EC50 [nM],Internalization % TOP [%]
B1,123,52.8
B2,79.4,44
B3,47.7,65.9
B4,63.4,48.4
B5,75.9,44.7
B6,48.8,44.8
B7,103,48
B8,61.4,36.1
B9,45.9,46.5
B10,60.3,53.3
B11,57.5,44.5

# Target: human glucagon receptor (human) (UniProt P47871)
# Sequence (P47871 26-477): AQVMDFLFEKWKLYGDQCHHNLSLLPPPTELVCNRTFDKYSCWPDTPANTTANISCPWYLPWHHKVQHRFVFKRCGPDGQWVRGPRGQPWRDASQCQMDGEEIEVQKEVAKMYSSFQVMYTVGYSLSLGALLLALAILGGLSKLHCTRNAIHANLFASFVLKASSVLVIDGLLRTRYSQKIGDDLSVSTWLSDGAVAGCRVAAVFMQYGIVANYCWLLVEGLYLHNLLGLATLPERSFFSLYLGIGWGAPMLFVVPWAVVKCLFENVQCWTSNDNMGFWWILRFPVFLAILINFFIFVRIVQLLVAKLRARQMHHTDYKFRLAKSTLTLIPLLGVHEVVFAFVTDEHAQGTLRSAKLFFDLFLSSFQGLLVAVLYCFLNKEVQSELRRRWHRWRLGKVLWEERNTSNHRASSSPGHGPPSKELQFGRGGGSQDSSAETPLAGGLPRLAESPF
# Assay: cell-based or functional assay
Binder,"Relative cAMP EC50, nM (0.1% casein) [nM]","cAMP Rel EC50, nM (1% HSA) [nM]"
B1,4.24,307
B2,4.22,758
B3,8.72,1040
B4,4.82,1440
B5,5.05,938
B6,4.72,558
B7,4.1,461
B8,3.86,502
B9,2.92,411
B10,4.16,838
B11,4.47,1250

# From patent US20240270821A1, “GIP/GLP1/GCG TRI-RECEPTOR AGONISTS AND USES THEREOF” (priority 2023, published 2024)
